From US11426447B2, “Neuregulin for the treatment of tumors of the nervous system” (LEIBNIZ-INSTITUT FUR …, priority 2016, dated 2022)

Assays:
[1] = system: sciatic nerve crush injury; test: Single-frame motion analysis (foot-base angle): functional recovery after sciatic nerve crush; format: in vivo, mice
From the text: Unilateral injuries of sciatic nerves were accomplished according to a previously described method (Bauder and Ferguson, 2012). In brief, 8 to 10 week old mice were anesthetized using 2% isoflurane in 100% oxygen. Fur was then removed from one hind limb. After an appropriate incision of the skin, the gluteal musculature was separated in order to reveal the right sciatic nerve. Using haemostatic forceps (Ultra Fine Haemostat; #13021-12; tip width 0.6 mm; Fine Science Tools; Germany), the nerve was crushed once by the application of a defined pressure for 20 s. The locking mechanism of the haemostatic forceps with a series of interlocking teeth ensured reproducibility and standardization of crush injury. Finally, both the gluteal musculature and skin incision were sutured using appropriate surgical suture material.
To evaluate locomotor function, mice were accustomed, in 3-4 trials, to beam-walking 1 week prior to surgery. In this test, the animal walks voluntarily from one end of a horizontal beam (length 1000 mm, width 40 mm) towards its home cage located at the other end of the beam. For all mice, a rear view of one walking trial was captured once prior to surgery and at different time-points after surgery with a Video camera and stored on a personal computer in Audio Video Interleaved (AVI) format. The video sequences were examined using VirtualDub 1.6.19 software.
It was tested whether rhNRG1 protein replacement can improve functional recovery of mice over a time period of 8 weeks after sciatic nerve crush.

Schwann cells = test: Neuropathological assessment (HE, immunolabelling) of sciatic nerve cross sections 3 months after crush injury; format: in vivo, P0-Cre;Nefh-Cre;Nf2fl/+ mice; conditions: KO mice
From the text: For histological workup, paraformaldehyd fixed nerve samples were embedded in paraffin, cut at the site of the largest diameter and mounted as a tissue micro array. 4 μm thick cross sections were used for H&E staining and immunohistochemical labelling of S100 (1:8000; Dako), P0 (1:300; Bioss Antibodies), phospho-c-Jun (Ser73; 1:500; Cell Signalling; 8752), ErbB2 (1:500; Cell Signaling) and Arginase-1 (1:200; Santa Cruz; H-52) in an automated Ventana stainer (Ventana Medical Systems, USA) using standard antigen retrieval protocols (CC1st, no pretreatment for S100-protein). Onion-bulbs and schwannoma-like structures were assessed in H&E stained slides.
Immunohistochemistry was performed as described in (Schulz et al., 2010). Briefly, paraffin-embedded, longitudinal sections of sciatic nerves were rehydrated, boiled in 10 mM sodium citrate buffer (pH9) for 30 min in a microwave and subsequently treated with 0,5% Triton X-100 for 10 min. Sections incubated in 0.2% gelatine and 2% goat serum diluted in PBS at least 2 h. Sections submersed in the primary antibody solution overnight at 4° C. The following primary antibodies were used: Myelin protein zero (P0; 1:200; Abcam; ab39375), neurofilament (1:200; BioLegend; SMI312), myelin basic protein (MBP; 1:500; Millipore; MAB384)), Ki-67 (1:200; eBioscience; Clone: SolA15), lba-1 (1:200; Wako), and p75 (1:200; Merck Millipore; AB 1554). After vigorous washings, sections incubated with secondary antibody solution (Alexa488-, Alexa546- or Alexa647-conjugated anti-mouse, -rat, -chicken and -rabbit antibodies, 1:500 in PBS, Invitrogen) at room temperature for 2 h. Finally specimens washed in PBS, counterstained using DAPI (1 μg/ml PBS, 10 min) dehydrated and embedded. DAPI-stained cell nuclei or lba-1-positive cells were counted using ImageJ plugin ‘Particle Analysis’ from images acquired with 10× magnification after standardized background reduction and threshold setting.
Sciatic nerve crush injury was performed on WT and Nf2flox;P0-Cre;Nefh-Cre mutant animals as described in Example 1. The Nf2flox;P0-Cre;Nefh-Cre mutant animals were intraperitoneally injected every day with 10 μg of rhNRG1 per kg body weight (KO rhNRG1). For a control a PBS solution was systemically administered to WT animals and Nf2flox;P0-Cre;Nefh-Cre mutant animals (WT vehicle and KO vehicle). Sciatic nerve lysates were taken from animals after 3 month of treatment upon which immunochemistry was performed as described in Example 1.

pre-existing schwannomas = test: rhNRG1 treatment of pre-existing schwannomas: maximum sciatic nerve diameter; format: in vivo, Nf2flox;P0-Cre;Nefh-Cre mutant mice; conditions: 3 months untreated, then 3 months systemic rhNRG1, vs vehicle
From the text: A, Schematic representation of the protocol used to assess the efficacy of rhNRG1 treatment on pre-existing schwannomas. B, Quantification of maximum sciatic nerve diameters 3 and 6 months after nerve crush injury. Nf2flox;P0-Cre;Nefh-Cre mutant mice received either saline injections (vehicle) or intraperitoneal administration of rhNRH1 (** P<0.01 for differences between vehicle and rhNRG1-treated animals; n=6 animals per genotype; mean±SEM).
Three months after crush injury the right sciatic nerve of all animals was exposed surgically in order to assess sciatic nerve diameter as indicator for tumour size. Documentation was performed by video-assisted microscopy for each animal. Selected frames from the video files (using VirtualDub 1.6.19 software) were used to determine sciatic nerve diameter using ImageJ.
Two cohorts of animals underwent crush injury-induced schwannoma induction at the right sciatic nerve as described above (FIG. 5A). […] Then knockout animals (Nf2flox;P0-Cre;Nefh-Cre mutant animals) received either systemic rhNRG1 treatment or vehicle control applications for three months (FIG. 5A). […] (FIG. 5B)

neurofibromas = test: Quantification of tumors in Nf1flox;Postn-Cre mice; format: in vivo; conditions: intraperitoneal rhNRG1 for three months, vs saline
From the text: PFA-fixed tissue blocks derived from rhNRG1 and control treated animals containing lower spinal cord, lumbar dorsal root ganglions (DRG) as well as distal nerve proportions were cut in 4 planes per animal. Photographs were subsequently scanned and analyzed using the NanoZoomer Digital Pathology Software. The total area occupied by peripheral nerve tissue and dorsal root ganglion (DRG) tissue in mm^2 was quantified separately. Likewise, neoplastic tissue regions were identified and quantified separately for peripheral nerves and DRG areas. All quantitative analyses of tumorlets in Nf2flox;Postn-Cre mice were performed in blinded manner.
Another closely related but not similar entity of Schwann cell tumors are neurofibromas. As opposed to schwannomas, Schwann cells represent the primary neoplastic cell component of neurofibromas (Stemmer-Rachamimov et al., 2004; Rodriguez et al., 2012), but also incorporate a mixture of non-neoplastic components, including axons, perineurial cells, fibroblasts and inflammatory cells. In order to test a possible effect of rhNRG1 treatment on these tumors, which are a typical manifestation of the hereditary disease Neurofibromatosis type 1 (NF1), 4-month-old mutant Nf1flox;Postn-Cre animals as well as wildtype littermates were either treated with saline control injections or intraperitoneal rhNRG1 administration for three months (FIG. 9A). […]

[2] = in vivo; cited from earlier work
[3] = systemic rhNRG1, 3 months after crush injury
[4] = systemic rhNRG1 vs saline-treated same genotype

B1: rhNRG1: EGF domain containing 7 kDa protein of recombinant human Neuregulin 1, purchased from Reprokine (#RKQ02297) (protein, listed as Homo sapiens)
chain: SHLVKCAEKEKTFCVNGGECFMVKDLSNPSRYLCKCPNEFTGDRCQNYVMASFYKHLGIEF
With B1 the “functional recovery after sciatic nerve crush (SFMA)” value ([1]; Nf2flox;P0-Cre;Nefh-Cre mutant mice, intraperitoneal injections every other day, vs no treatment or saline) was “significantly improved recovery”, the “functional regeneration after sciatic nerve crush (SFMA)” value ([1]; Nf2flox;P0-Cre;Nefh-Cre mutant mice, local administration with absorbable collagen sponges, vs control treatment) was “able to increase functional regeneration” and the “functional recovery after sciatic nerve crush (SFMA)” value ([1]; wildtype animals, systemic rhNRG1, 8 weeks) was “does not enhance regeneration”. The “number of immature Schwann cells (p75 staining)” value (Schwann cells; rhNRG1 injections) was “relevantly decreased”, the “immunoreactivity of schwannoma marker CPI-17” value (Schwann cells; rhNRG1 vs KO control injections) was “relevantly lower” and the “S100 and MPZ immunoreactivity” value (Schwann cells; [3]) was “restricted to Schwann cells with myelinating phenotype”. For the same molecule, the “nerve regeneration (histology)” value (Schwann cells; [3]) was “almost regular regeneration”, the “expression of Neuregulin1 (immunolabelling)” value (Schwann cells; [4]) was “greatly reduced” and the “expression of receptor tyrosine kinase ErbB2 (immunolabelling)” value (Schwann cells; [4]) was “greatly reduced”. For the same molecule, the “tumor size (maximum sciatic nerve diameter)” value (pre-existing schwannomas) was “markedly smaller”, the “neurofibromas from distal parts of the nervous system (tumor fraction)” value (neurofibromas) was “significant effect” and the body weight [2] was “decrease in body weight”.
